Assay results published in US20090011988A1 (Genentech, published 2009).
Positions of bridges follow the written chain, without caps; N, C: chain ends. No end group written: not given here.

B1: 23D3.3 (peptide)
peptide displayed on M13 phage as a fusion to g8p: AMWVCVSDWETVEECIQYMY
modifications: not fully specified (bridges); cysteine pairing not given here; also: displayed on phage coat protein g8
notes: whole phage particle in the assay; also called peptide-phage clone 23D3.3 (g8 display)
B2: BP-24 (peptide)
peptide: WFKTVCYEWEDEVQCYTLEEG-NH2
modifications: disulfide 6-15; N-terminus assumed
SMILES: CC(C)C[C@H](NC(=O)[C@@H](NC(=O)[C@H](Cc1ccc(O)cc1)NC(=O)[C@@H]1CSSC[C@H](NC(=O)[C@@H](NC(=O)[C@@H](NC(=O)[C@H](CCCCN)NC(=O)[C@H](Cc2ccccc2)NC(=O)[C@@H](N)Cc2c[nH]c3ccccc23)[C@@H](C)O)C(C)C)C(=O)N[C@@H](Cc2ccc(O)cc2)C(=O)N[C@@H](CCC(=O)O)C(=O)N[C@@H](Cc2c[nH]c3ccccc23)C(=O)N[C@@H](CCC(=O)O)C(=O)N[C@@H](CC(=O)O)C(=O)N[C@@H](CCC(=O)O)C(=O)N[C@@H](C(C)C)C(=O)N[C@@H](CCC(N)=O)C(=O)N1)[C@@H](C)O)C(=O)N[C@@H](CCC(=O)O)C(=O)N[C@@H](CCC(=O)O)C(=O)NCC(N)=O
notes: also called peptide of phage clone 4D3.5
B3: BP3-4B3.3 (peptide)
peptide: EESECFEGPGYVICGLVG
modifications: disulfide 5-14
B4: BP3-4D3.11 (peptide)
peptide: VAWEVCWDRHDQGYICTTDS
modifications: disulfide 6-16
B5: 23B3.7 (peptide)
peptide displayed on M13 phage as a fusion to g8p: GDVECIEGPWGELCVWAD
modifications: not fully specified (bridges); cysteine pairing not given here; also: displayed on phage coat protein g8
notes: whole phage particle in the assay; also called peptide-phage clone 23B3.7 (g8 display)
B6: 23D3.6 (peptide)
peptide displayed on M13 phage as a fusion to g8p: TNWFFVCESGHQDICWLAEE
modifications: not fully specified (bridges); cysteine pairing not given here; also: displayed on phage as g8p fusion
notes: whole phage particle in the assay; also called peptide-phage clone 23D3.6 (g8 display)
B7: BP3-08 (peptide)
peptide: TVANCDCYMPLCLCYDSD
modifications: disulfide 7-12; disulfide 5-14 (inferred)
B8: BP3-06 (peptide)
peptide: TGVDCQCGPVHCVCMDWA
modifications: disulfide 7-12; disulfide 5-14 (inferred)
B9: (i+7)A (peptide)
peptide: Ac-CRAGPLQELCEKYAE
modifications: disulfide 1-10 (inferred); linker 8-15 via 1,5‑diaminopentane
B10: BP3-40 (peptide)
peptide: Ac-SEEVCWPVAEWYLCN-NH2
modifications: disulfide 5-14
SMILES: CC(=O)N[C@@H](CO)C(=O)N[C@@H](CCC(=O)O)C(=O)N[C@@H](CCC(=O)O)C(=O)N[C@H](C(=O)N[C@H]1CSSC[C@@H](C(=O)N[C@@H](CC(N)=O)C(N)=O)NC(=O)[C@H](CC(C)C)NC(=O)[C@H](Cc2ccc(O)cc2)NC(=O)[C@H](Cc2c[nH]c3ccccc23)NC(=O)[C@H](CCC(=O)O)NC(=O)[C@H](C)NC(=O)[C@H](C(C)C)NC(=O)[C@@H]2CCCN2C(=O)[C@H](Cc2c[nH]c3ccccc23)NC1=O)C(C)C
B11: BP3-28 (peptide)
peptide: EEVCWPVAEWYLCN
modifications: disulfide 4-13
B12: BP3-16 (peptide)
peptide: VCWPVAEWYLCNMWG
modifications: disulfide 2-11
B13: BP3-39 (peptide)
peptide: SEEVCWPVAEWYLCN-NH2
modifications: disulfide 5-14; N-terminus assumed
SMILES: CC(C)C[C@@H]1NC(=O)[C@H](Cc2ccc(O)cc2)NC(=O)[C@H](Cc2c[nH]c3ccccc23)NC(=O)[C@H](CCC(=O)O)NC(=O)[C@H](C)NC(=O)[C@H](C(C)C)NC(=O)[C@@H]2CCCN2C(=O)[C@H](Cc2c[nH]c3ccccc23)NC(=O)[C@@H](NC(=O)[C@@H](NC(=O)[C@H](CCC(=O)O)NC(=O)[C@H](CCC(=O)O)NC(=O)[C@@H](N)CO)C(C)C)CSSC[C@@H](C(=O)N[C@@H](CC(N)=O)C(N)=O)NC1=O
B14: 23D3.5 (peptide)
peptide displayed on M13 phage as a fusion to g8p: AMWVCVSDWETVEECIQYMY
modifications: not fully specified (bridges); cysteine pairing not given here; also: displayed on phage as g8p fusion
notes: whole phage particle in the assay; also called peptide-phage clone 23D3.5 (g8 display)
B15: BP3-25 (peptide)
peptide: CWPVAEWYLCN
modifications: disulfide 1-10
B16: BP3-02-ox (peptide)
peptide: DMGVCADGPWMYVCEWTE
modifications: disulfide 5-14
B17: 23D3.4 (peptide)
peptide displayed on M13 phage as a fusion to g8p: AMWVCVSDWETVEECIQYMY
modifications: not fully specified (bridges); cysteine pairing not given here; also: displayed on phage coat protein g8
notes: whole phage particle in the assay; also called peptide-phage clone 23D3.4 (g8 display)
B18: 23D3.1 (peptide)
peptide displayed on M13 phage as a fusion to g8p: FGGWSCQPTWVDVYVCNFEE
modifications: not fully specified (bridges); cysteine pairing not given here; also: displayed on phage coat protein g8
notes: whole phage particle in the assay; also called peptide-phage clone 23D3.1 (g8 display)
B19: BP3-4D3.11DEL (peptide)
peptide: AWEVCWDRHQGYICTTDS
modifications: disulfide 5-14
B20: 4D3.3P (peptide)
peptide: ASEEVCWPVAEWYLCNMWGR
modifications: disulfide 6-15
B21: (i+7)C (peptide)
peptide: Ac-PLEWLAEKYEG
modifications: linker 3-10 via 1,5‑diaminopentane
B22: BP3-30 (peptide)
peptide: ASEEVCWPVAEWYLCN
modifications: disulfide 6-15
B23: BP3-41 (peptide)
peptide: GPETCWPVAEWYLCN
modifications: disulfide 5-14
B24: BP3-24 (peptide)
peptide: WPVAEWYLCN
notes: only one Cys, no intact disulfide
B25: BP3-27 (peptide)
peptide: EVCWPVAEWYLCN
modifications: disulfide 3-12
B26: 23D3.2 (peptide)
peptide displayed on M13 phage as a fusion to g8p: AMWVCVSDWETVEECIQYMY
modifications: not fully specified (bridges); cysteine pairing not given here; also: displayed on phage coat protein g8
notes: whole phage particle in the assay; also called peptide-phage clone 23D3.2 (g8 display)
B27: BP-23 (peptide)
peptide: ELDGWVCIKVGEQNLCYLAEG-NH2
modifications: disulfide 7-16; N-terminus assumed
SMILES: CC[C@H](C)[C@@H]1NC(=O)[C@@H](NC(=O)[C@@H](NC(=O)[C@H](Cc2c[nH]c3ccccc23)NC(=O)CNC(=O)[C@H](CC(=O)O)NC(=O)[C@H](CC(C)C)NC(=O)[C@@H](N)CCC(=O)O)C(C)C)CSSC[C@@H](C(=O)N[C@@H](Cc2ccc(O)cc2)C(=O)N[C@@H](CC(C)C)C(=O)N[C@@H](C)C(=O)N[C@@H](CCC(=O)O)C(=O)NCC(N)=O)NC(=O)[C@H](CC(C)C)NC(=O)[C@H](CC(N)=O)NC(=O)[C@H](CCC(N)=O)NC(=O)[C@H](CCC(=O)O)NC(=O)CNC(=O)[C@H](C(C)C)NC(=O)[C@H](CCCCN)NC1=O
notes: also called peptide of phage clone 4C3.2
B28: 23B3.6 (peptide)
peptide displayed on M13 phage as a fusion to g8p: EVLLCSDGPQLYLCELYA
modifications: not fully specified (bridges); cysteine pairing not given here; also: displayed on phage coat protein g8
notes: whole phage particle in the assay; also called peptide-phage clone 23B3.6 (g8 display)

Key:
[1] = target: T1, recombinant human IGFBP-3 (human, UniProt P17936 28-291); test: phage ELISA (IGF-blocking phage assay): g8 peptide-phage on an IGFBP-3-coated plate, without and with IGF-1; OD492
Procedure: The plates were then washed ten times, as above, and a solution of rabbit anti-phage antibody mixed with a goat-anti-rabbit conjugate of horseradish peroxidase was added. After an incubation of 1 hour at room temperature, the plates were developed with a chromogenic substrate, o-phenylenediamine (Sigma). The reaction was stopped with addition of ½ volume of 2.5 M H₂SO₄. Optical density at 490 nm was measured on a spectrophotometric plate reader.
In each case, the phagemid clone was grown from a single colony overnight at 37° C. in a culture volume of 5 ml. The phage particles were prepared as described above.

[2] = target: T1, recombinant human IGFBP-3; test: BIAcore competition, IGFBP-3 to immobilized IGF-1
Procedure: IGF-1 was immobilized on a dextran chip for inhibition assays using a BIACORE™ 2000 surface-plasmon-resonance device (BIAcore, Inc., Piscataway, N.J.) to measure free binding protein. IGF-1 was biotinylated as described above, and injected over a chip to which streptavidin had been coupled (BIAcore, Inc.) to give 400 to 800 RU (response units) of immobilized IGF-1. […] After incubation for >1 hour at room temperature, an aliquot of 20:L was injected at a flow rate of 20:L/min over the IGF-1 chip. […]

[3] = target: T2, human IGFBP-1 (human, UniProt P08833 26-259); test: BIAcore inhibition assay
T2 sequence (looked up): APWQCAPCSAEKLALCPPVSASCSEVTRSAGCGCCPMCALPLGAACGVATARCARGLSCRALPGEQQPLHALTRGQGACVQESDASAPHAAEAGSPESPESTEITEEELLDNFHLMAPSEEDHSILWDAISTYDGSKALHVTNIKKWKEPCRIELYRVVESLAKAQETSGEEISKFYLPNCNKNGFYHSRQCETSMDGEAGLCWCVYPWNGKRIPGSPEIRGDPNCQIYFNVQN
Procedure: Peptides were assayed in a BIAcore™ assay as described in WO 98/45427, supra.

[4] = target: T1, recombinant human IGFBP-3; test: BIAcore competition, IGFBP-3 to IGF-1
Procedure: IGF-1 was immobilized on a dextran chip for inhibition assays using a BIACORE™ 2000 surface-plasmon-resonance device (BIAcore, Inc., Piscataway, N.J.) to measure free binding protein. IGF-1 was biotinylated as described above, and injected over a chip to which streptavidin had been coupled (BIAcore, Inc.) to give 400 to 800 RU (response units) of immobilized IGF-1. […] After incubation for >1 hour at room temperature, an aliquot of 20:L was injected at a flow rate of 20:L/min over the IGF-1 chip.

T1 sequence (P17936 28-291 limits assumed): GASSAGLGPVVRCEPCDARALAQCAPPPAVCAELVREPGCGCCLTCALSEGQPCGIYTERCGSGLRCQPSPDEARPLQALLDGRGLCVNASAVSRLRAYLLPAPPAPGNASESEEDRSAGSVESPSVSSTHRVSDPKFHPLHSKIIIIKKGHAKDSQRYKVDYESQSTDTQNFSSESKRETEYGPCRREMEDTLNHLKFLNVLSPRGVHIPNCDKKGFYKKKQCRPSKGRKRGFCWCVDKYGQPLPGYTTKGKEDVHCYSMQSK

Row | Binder | IC50 [2] [µM] | IC50 [4] [µM] | other results
1 | B1 |  |  | binding result [1]: binds
2 | B2 | 100 to 300 |  | 
3 | B3 | 80 |  | 
4 | B4 | < 10 |  | 
5 | B5 |  |  | binding result [1]: binds
6 | B6 |  |  | binding result [1]: binds
7 | B7 | 15 |  | 
8 | B8 | 5 |  | 
9 | B9 |  |  | fold potency reduction, IC50 (BP1-01)/IC50 (mut) [3]: 40
10 | B10 |  | 0.66 | 
11 | B11 |  | 5.4 | 
12 | B12 | 30 |  | 
13 | B13 |  | 0.66 | 
14 | B14 |  |  | binding result [1]: binds
15 | B15 |  | 46 | 
16 | B16 | 12 |  | 
17 | B17 |  |  | binding result [1]: binds
18 | B18 |  |  | binding result [1]: binds
19 | B19 | 80 |  | 
20 | B20 |  | 5.6 | 
21 | B21 |  |  | fold potency reduction, IC50 (BP1-01)/IC50 (mut) [3]: 20
22 | B22 |  | 5.6 | 
23 | B23 |  | 4 | 
24 | B24 |  | > 1000 | 
25 | B25 |  | 2.8 | 
26 | B26 |  |  | binding result [1]: binds
27 | B27 | 220 |  | 
28 | B28 |  |  | binding result [1]: binds
